Positions of bridges follow the written chain, without caps; N, C: chain ends. Non-standard residues stand in square brackets, D forms with d. No end group written: not given here. Aib = CC(C)(N)C(=O)O

human glucagon receptor, sequence (P47871 26-477): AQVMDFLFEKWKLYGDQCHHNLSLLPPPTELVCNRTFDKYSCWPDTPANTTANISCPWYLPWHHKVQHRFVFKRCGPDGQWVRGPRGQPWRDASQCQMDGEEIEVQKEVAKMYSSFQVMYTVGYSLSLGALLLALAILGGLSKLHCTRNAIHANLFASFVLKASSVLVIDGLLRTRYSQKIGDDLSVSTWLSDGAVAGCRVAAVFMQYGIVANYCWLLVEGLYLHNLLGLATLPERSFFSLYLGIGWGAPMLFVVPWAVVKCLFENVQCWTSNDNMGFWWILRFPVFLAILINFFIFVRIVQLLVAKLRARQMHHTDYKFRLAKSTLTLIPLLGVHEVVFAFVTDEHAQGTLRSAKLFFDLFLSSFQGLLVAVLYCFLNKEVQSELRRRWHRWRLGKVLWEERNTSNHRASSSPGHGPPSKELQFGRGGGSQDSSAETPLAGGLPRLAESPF

The first series concerns the target human glucagon receptor (human, UniProt P47871 26-477). The series is described as follows: cell-based or functional assay.
Settings: not given
As for HSQGTFTSDYSKYLDSCDAQDFVQWLMNT [glucagon derivative of SEQ ID NO: 4], the “in vitro activity (%, relative to SEQ ID NO: 1); cAMP assay, from EC50” value was below 0.1%.

For HSQGTFTSDYSKYLDCERAQDFVQWLMNT [glucagon derivative of SEQ ID NO: 3], the “in vitro activity (%, relative to SEQ ID NO: 1); cAMP assay, from EC50” value amounted to 6.1%.

In the case of Y[Aib]QGTFTSDYSKYLDEKRAKCFVQWLMNT (lactam 16-20) [glucagon derivative of SEQ ID NO: 25], the “in vitro activity (%, relative to SEQ ID NO: 1); cAMP assay, from EC50” value was 46.9%.

With YSQGTFTSDYSKYLDSCEADDFVQWLMNT [glucagon derivative of SEQ ID NO: 7], the “in vitro activity (%, relative to SEQ ID NO: 1); cAMP assay, from EC50” value is below 0.1%.

As to Y[Aib]QGTFTSDYSKYLDEKCAKEFVQWLMNT [glucagon derivative of SEQ ID NO: 11], the “in vitro activity (%, relative to SEQ ID NO: 1); cAMP assay, from EC50” value was 4.6%.

For the molecule W[Aib]QGTFTSDYSKCLDERRAKDFVQWLMNT (lactam 16-20) [glucagon derivative of SEQ ID NO: 30], the “in vitro activity (%, relative to SEQ ID NO: 1); cAMP assay, from EC50” value is 0.3%.

On to Y[Aib]QGTFTSDYSKYLDEKCAKEFVQWLMNT (lactam 16-20) [glucagon derivative of SEQ ID NO: 21], for which the “in vitro activity (%, relative to SEQ ID NO: 1); cAMP assay, from EC50” value was determined as 57.8%.

For the molecule Y[Aib]QGTFTSDYSKYLDCRRAQVFVQWLMRT [glucagon derivative of SEQ ID NO: 16], the “in vitro activity (%, relative to SEQ ID NO: 1); cAMP assay, from EC50” value stood at 4.2%.

With Y[Aib]QGTFVSDCSKYLDERRAKDFVQWLMNT (lactam 16-20) [glucagon derivative of SEQ ID NO: 39], the “in vitro activity (%, relative to SEQ ID NO: 1); cAMP assay, from EC50” value stood at 3.7%.

Regarding Y[Aib]QGTFTSDYSKYCDERRAKEFVQWLMNT (lactam 16-20) [glucagon derivative of SEQ ID NO: 35], the “in vitro activity (%, relative to SEQ ID NO: 1); cAMP assay, from EC50” value is 17.7%.

For Y[Aib]QGTFTSDYSKYLDEKRAKEFVQWLMNTC (lactam 16-20) [glucagon derivative of SEQ ID NO: 12], the “in vitro activity (%, relative to SEQ ID NO: 1); cAMP assay, from EC50” value amounted to 56.3%.

Take Y[Aib]QGTFCSDYSKYLDERRAKEFVQWLMNT (lactam 16-20) [glucagon derivative of SEQ ID NO: 38]: the “in vitro activity (%, relative to SEQ ID NO: 1); cAMP assay, from EC50” value came out at 167%.

HSQGTFTSDYSKYLDCDRAQDFVQWLMNT [glucagon derivative of SEQ ID NO: 2]: the “in vitro activity (%, relative to SEQ ID NO: 1); cAMP assay, from EC50” value came to 0.6%.

Turning to SQGTFTSDYSKYLDECRAKEFVQWLMNT (lactam 15-19) [glucagon derivative of SEQ ID NO: 32], the “in vitro activity (%, relative to SEQ ID NO: 1); cAMP assay, from EC50” value came out at 0.7%.

For W[Aib]QGTFTSDYSKYCDERRAKEFVQWLMNT (lactam 16-20) [glucagon derivative of SEQ ID NO: 34], the “in vitro activity (%, relative to SEQ ID NO: 1); cAMP assay, from EC50” value came to 0.2%.

As for Y[Aib]QGTFCSDYSKYLDERRAKDFVQWLMNT (lactam 16-20) [glucagon derivative of SEQ ID NO: 41], the “in vitro activity (%, relative to SEQ ID NO: 1); cAMP assay, from EC50” value was 45.2%.

With Y[Aib]QGTFTSDYSKYLDSCDADDFVVWLINT [glucagon derivative of SEQ ID NO: 10], the “in vitro activity (%, relative to SEQ ID NO: 1); cAMP assay, from EC50” value was below 0.1%.

Regarding Y[Aib]QGTFTSDCSKYLDERRAKEFVQWLMNT (lactam 16-20) [glucagon derivative of SEQ ID NO: 36], the “in vitro activity (%, relative to SEQ ID NO: 1); cAMP assay, from EC50” value amounted to 9.9%.

With Y[Aib]QGTFVSDYSKYLDECRAKDFVQWLMNT (lactam 16-20) [glucagon derivative of SEQ ID NO: 27], the “in vitro activity (%, relative to SEQ ID NO: 1); cAMP assay, from EC50” value was 93.6%.

As for W[Aib]QGTFTSDYSKYLDECRAKDFVQWLMNT (lactam 16-20) [glucagon derivative of SEQ ID NO: 26], the “in vitro activity (%, relative to SEQ ID NO: 1); cAMP assay, from EC50” value is 1%.

For the molecule Y[Aib]QGTFTSDYSKYLDCKRAKEFVQWLMNT (lactam 17-21) [glucagon derivative of SEQ ID NO: 31], the “in vitro activity (%, relative to SEQ ID NO: 1); cAMP assay, from EC50” value was 6.3%.

With Y[Aib]QGTFTSDYSKYCDEKRAKEFVQWLMNT (lactam 16-20) [glucagon derivative of SEQ ID NO: 23], the “in vitro activity (%, relative to SEQ ID NO: 1); cAMP assay, from EC50” value is 76.8%.

Consider W[Aib]QGTFVSDYSKYLDECRAKDFVQWLMNT (lactam 16-20) [glucagon derivative of SEQ ID NO: 28], for which the “in vitro activity (%, relative to SEQ ID NO: 1); cAMP assay, from EC50” value was below 0.1%.

Y[Aib]QGTFTSDYSKYLDSCDAQDFVQWLINT [glucagon derivative of SEQ ID NO: 8]: the “in vitro activity (%, relative to SEQ ID NO: 1); cAMP assay, from EC50” value is below 0.1%.

As for Y[Aib]QGTFTSDYSKCLDEKRAKEFVQWLMNT (lactam 16-20) [glucagon derivative of SEQ ID NO: 24], the “in vitro activity (%, relative to SEQ ID NO: 1); cAMP assay, from EC50” value is 58%.

In the case of Y[Aib]QGTFTSDYSKYLCEKRAQDFVVWLMNT [glucagon derivative of SEQ ID NO: 15], the “in vitro activity (%, relative to SEQ ID NO: 1); cAMP assay, from EC50” value turned out to be 1.1%.

In the case of Y[Aib]QGTFTSDYSKYLDCKRAKEFVQWLMNT [glucagon derivative of SEQ ID NO: 14], the “in vitro activity (%, relative to SEQ ID NO: 1); cAMP assay, from EC50” value is 18.1%.

In the case of Y[Aib]QGTFTSDYSKYLCEKRAKEFVQWLMNT (lactam 16-20) [glucagon derivative of SEQ ID NO: 19], the “in vitro activity (%, relative to SEQ ID NO: 1); cAMP assay, from EC50” value worked out at 12.1%.

Y[Aib]QGTFTSDYSKYLDEKRCKEFVQWLMNT (lactam 16-20) [glucagon derivative of SEQ ID NO: 22]: the “in vitro activity (%, relative to SEQ ID NO: 1); cAMP assay, from EC50” value is 148%.

As to Y[Aib]QGTFTSDYSKCLDERRAKDFVQWLMNT (lactam 16-20) [glucagon derivative of SEQ ID NO: 29], the “in vitro activity (%, relative to SEQ ID NO: 1); cAMP assay, from EC50” value is 61.3%.

With Y[Aib]QGTFTSDYSKYLDCVRAQDFVQWLMRT [glucagon derivative of SEQ ID NO: 17], the “in vitro activity (%, relative to SEQ ID NO: 1); cAMP assay, from EC50” value was 23.2%.

As for YXQGTFTSDYSKYLDSRRAQDFVQWLMNT (X at position 2 = aminoisobutyric acid (Aib)) [glucagon derivative of SEQ ID NO: 33], the “in vitro activity (%, relative to SEQ ID NO: 1); cAMP assay, from EC50” value was determined as 108%.

As for HSQGTFTSDYSKYLDSCEADDFVQWLMNT [glucagon derivative of SEQ ID NO: 6], the “in vitro activity (%, relative to SEQ ID NO: 1); cAMP assay, from EC50” value was below 0.1%.

For Y[Aib]QGTFTSDCSKYLDSRRAQDFVQWLMNT [glucagon derivative of SEQ ID NO: 43], the “in vitro activity (%, relative to SEQ ID NO: 1); cAMP assay, from EC50” value was determined as 1.6%.

On to YXQGTFTSDYSKYLDSRRAQDFVQWLMNTC (X at position 2 = aminoisobutyric acid (Aib)) [glucagon derivative of SEQ ID NO: 44], for which the “in vitro activity (%, relative to SEQ ID NO: 1); cAMP assay, from EC50” value worked out at 75.4%.

Turning to Y[Aib]QGTFTSDYSKYLDSCDAQDFVVWLINT [glucagon derivative of SEQ ID NO: 9], the “in vitro activity (%, relative to SEQ ID NO: 1); cAMP assay, from EC50” value was below 0.1%.

Y[Aib]QGTFTSDYSKYLDECRAKEFVQWLMNT (lactam 16-20) [glucagon derivative of SEQ ID NO: 20]: the “in vitro activity (%, relative to SEQ ID NO: 1); cAMP assay, from EC50” value was 300%.

Take Y[Aib]QGTFVSDYSKYLDERRAKDFVQWLMNTC (lactam 16-20) [glucagon derivative of SEQ ID NO: 40]: the “in vitro activity (%, relative to SEQ ID NO: 1); cAMP assay, from EC50” value is 40.8%.

Consider Y[Aib]QGTFCSDYSKYLDSRRAQDFVQWLMNT [glucagon derivative of SEQ ID NO: 42], for which the “in vitro activity (%, relative to SEQ ID NO: 1); cAMP assay, from EC50” value amounted to 37.9%.

Y[Aib]QGTFTSDYSKYLDSRRACDFRLWLMNT [glucagon derivative of SEQ ID NO: 18]: the “in vitro activity (%, relative to SEQ ID NO: 1); cAMP assay, from EC50” value is below 0.1%.

For the molecule HSQGTFTSDYSKYLDSCEAQDFVQWLMNT [glucagon derivative of SEQ ID NO: 5], the “in vitro activity (%, relative to SEQ ID NO: 1); cAMP assay, from EC50” value was determined as 0.3%.

System in a further series: not given
Assay: not given
The note with it: in vivo; cited from earlier work.
In the case of Contrave, the side-effects entry is recorded as “cardiovascular side-effects”.

Staying with this series, now noted: reported; cited from earlier work.
For the molecule `Cc1c(C(=O)NN2CCCCC2)nn(-c2ccc(Cl)cc2Cl)c1-c1ccc(Cl)cc1` [Rimonabant], the side-effects entry is on record as “side-effect of central nervous system disorder”.

Turning to `CC(C)CC(N(C)C)C1(c2ccc(Cl)cc2)CCC1` (stereo not drawn) [Sibutramine], the side-effects result is listed as “cardiovascular side-effects”.

The series is the same for the next values; noted with them: when taken for one year; cited from earlier work.
For `CCCCCCCCCCC[C@@H](C[C@@H]1OC(=O)[C@H]1CCCCCC)OC(=O)[C@H](CC(C)C)NC=O` [Orlistat], the weight loss entry was “about 4 kg”.

Values taken from patent US20210338779A1, “THERAPEUTIC USE OF GLUCAGON AND COMBINATION INCLUDING THE SAME” (HANMI PHARM. CO., LTD, priority 2018, published 2021).
